Experimental data: paper PMC4268010 (Molecular cell, 2014)
“And” between values parts separate entries of the source, which are not always exact repeats. Identical values can stand only once.

B1: MBP-tagged smc5-ΔNC (residues 149-944) (domain or fragment, UniProt Q08204 149-944, looked up)
chain: DYLINDYQVSESVVKTLVAQLNIQLDNLCQFLSQERVEEFARLKSVKLLVETIRSIDASLLDVLDELRELQGNEQSLQKDLDFKKAKIVHLRQESDKLRKSVESLRDFQNKKGEIELHSQLLPYVKVKDHKEKLNIYKEEYERAKANLRAILKDKKPFANTKKTLENQVEELTEKCSLKTDEFLKAKEKINEIFEKLNTIRDEVIKKKNQNEYYRGRTKKLQATIISTKEDFLRSQEILAQTHLPEKSVFEDIDIKRKEIINKEGEIRDLISEIDAKANAINHEMRSIQRQAESKTKSLTTTDKIGILNQDQDLKEVRDAVLMVREHPEMKDKILEPPIMTVSAINAQFAAYLAQCVDYNTSKALTVVDSDSYKLFANPILDKFKVNLRELSSADTTPPVPAETVRDLGFEGYLSDFITGDKRVMKMLCQTSKIHTIPVSRRELTPAQIKKLITPRPNGKILFKRIIHGNRLVDIKQSAYGSKQVFPTDVSIKQTNFYQGSIMSNEQKIRIENEIINLKNEYNDRKSTLDALSNQKSGYRHELSELASKNDDINREAHQLNEIRKKYTMRKSTIETLREKLDQLKREARKDVSQKIKDIDDQIQQLLLKQRHLLSKMASSMKSLKNCQKELISTQILQFEAQNMDVSMNDVIGFFNEREADLKSQYEDKKKFVKEMRDTPEFQSWMREIRSYDQDTKEKLNKVAEKYEEEGNFNLSFVQDVLDKLESEIAMVNHDESAVTILDQVTAELRELEHTVPQQSKDLETIKAKLKEDHAVLEPKLDDIVSKISARFARLF
B2: His6-Flag-tagged Mph1 (enzyme, budding yeast, UniProt P40562 1-993, looked up)
chain: MASADDYFSDFEDDELDKLYEKAINKSVKETITRRAVPVQKDLHDNVLPGQKTVYEEIQRDVSFGPTHHELDYDALSFYVYPTNYEVRDYQYTIVHKSLFQNTLCAIPTGMGKTFIASTVMLNYFRWTKKAKIIFTAPTRPLVAQQIKACLGITGIPSDQTAILLDKSRKNREEIWANKRVFFATPQVVENDLKRGVLDPKDIVCLVIDEAHRATGSSAYTNVVKFIDRFNSSYRLLALTATPASDLEGVQEVVNNLDISKIEIRTEESMDIVKYMKKRKKEKIEVPLLLEIEDIIEQLGMAVKPVLQQAIELGIYEECDPSQINAFKAMQQSQKIIANPTIPEGIKWRNFFILQLLNNVGQMLKRLKIYGIRTFFNYFQNKCTEFTTKYNLKKSTNKIAAEFYYHPILKNIKNQCENYLSDPKFVGHGKLQCVRDELMDFFQKRGSDSRVIIFTELRESALEIVKFIDSVADDQIRPHIFIGQARAKEGFDEVKYTRKHAPKGRKKVERLHRQEQEKFLEAERTKRAANDKLERSARRTGSSEEAQISGMNQKMQKEVIHNFKKGEYNVLVCTSIGEEGLDIGEVDLIICYDTTSSPIKNIQRMGRTGRKRDGKIVLLFSSNESYKFERAMEDYSTLQALISKQCIDYKKSDRIIPEDIIPECHETLITINDENEIINEMEDVDEVIRYATQCMMGKKVKPKKAITKKKRVQENKKPKKFFMPDNVETSIVSASTLINKFLVNESGGKQLVTSNENPSKKRKIFKALDNLENDSTEEASSSLETEDEEVSDDNNVFIAEGQNGCQKDLETAIIRTGESLTTLKPLHNFERPNMALFVNDCGLPTKIEKNVKDIRGNQHNLEKEKSCTVDKNNMVLSLDDWNFFRNRYIPEGVSFDVEPNFVQYTKGVKVPHCHKVSKIITLFNDESNDNKKRTIDMNYTKCLARGMLRDEKKFVKVNDKSQVDNNSVNHDSSQSFTLSNAELDDILGSDSDF

Experiments:
[1] = target: B2; assay: pull-down
[2] = target: T1, MBP-tagged Smc5 (WT) (UniProt Q08204 1-1093); assay: pull-down
T1 sequence (looked up): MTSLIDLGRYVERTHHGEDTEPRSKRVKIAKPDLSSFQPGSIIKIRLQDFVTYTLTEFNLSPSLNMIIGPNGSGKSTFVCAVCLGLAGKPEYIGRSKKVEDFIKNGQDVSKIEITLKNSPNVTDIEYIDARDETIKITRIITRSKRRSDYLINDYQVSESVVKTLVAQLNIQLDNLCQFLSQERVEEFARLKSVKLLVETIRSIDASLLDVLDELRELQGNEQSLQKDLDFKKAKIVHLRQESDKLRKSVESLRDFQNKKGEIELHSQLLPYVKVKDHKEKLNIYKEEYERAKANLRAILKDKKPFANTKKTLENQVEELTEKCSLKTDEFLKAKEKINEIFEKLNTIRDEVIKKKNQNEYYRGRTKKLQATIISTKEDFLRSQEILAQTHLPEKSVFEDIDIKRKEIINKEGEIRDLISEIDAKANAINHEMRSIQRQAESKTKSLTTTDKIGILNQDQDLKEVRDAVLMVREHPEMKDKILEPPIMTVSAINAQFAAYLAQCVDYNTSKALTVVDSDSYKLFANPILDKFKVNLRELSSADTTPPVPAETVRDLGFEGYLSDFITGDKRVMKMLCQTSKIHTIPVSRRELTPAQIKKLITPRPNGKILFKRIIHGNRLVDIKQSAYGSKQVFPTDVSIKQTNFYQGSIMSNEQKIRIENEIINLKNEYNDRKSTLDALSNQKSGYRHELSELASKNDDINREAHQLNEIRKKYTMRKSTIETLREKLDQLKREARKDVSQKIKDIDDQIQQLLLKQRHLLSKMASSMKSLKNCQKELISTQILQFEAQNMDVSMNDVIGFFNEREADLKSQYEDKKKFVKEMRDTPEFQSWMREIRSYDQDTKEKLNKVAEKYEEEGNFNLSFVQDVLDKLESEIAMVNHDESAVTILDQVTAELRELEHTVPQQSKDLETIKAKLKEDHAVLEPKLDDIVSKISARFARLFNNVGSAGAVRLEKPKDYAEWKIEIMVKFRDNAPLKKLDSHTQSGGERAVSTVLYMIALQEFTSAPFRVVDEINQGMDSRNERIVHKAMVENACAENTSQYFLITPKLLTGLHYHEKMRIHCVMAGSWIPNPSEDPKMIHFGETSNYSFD

[3] = target: T2, His6-Flag-tagged Mph1 (budding yeast), P40562; assay: atomic force microscopy, volume analysis; conditions: remark: other sources report otherwise
T2 chain: B2 chain

[4] = target: T2, His6-Flag-tagged Mph1 (budding yeast), …; assay: atomic force microscopy, volume analysis; conditions: remark: other sources report otherwise
[5] = target: T3, Strep-tagged Smc5 (UniProt Q08204 1-1093); assay: pull-down
T3 sequence (looked up): T1 sequence (looked up)

[6] = target: Myc-Smc5-Strep-Smc6 complex (UniProt Q08204 1-1093; Q12749 1-1114); assay: pull-down
Myc-Smc5-Strep-Smc6 complex, sequence (Q12749 whole entry, one chain of several): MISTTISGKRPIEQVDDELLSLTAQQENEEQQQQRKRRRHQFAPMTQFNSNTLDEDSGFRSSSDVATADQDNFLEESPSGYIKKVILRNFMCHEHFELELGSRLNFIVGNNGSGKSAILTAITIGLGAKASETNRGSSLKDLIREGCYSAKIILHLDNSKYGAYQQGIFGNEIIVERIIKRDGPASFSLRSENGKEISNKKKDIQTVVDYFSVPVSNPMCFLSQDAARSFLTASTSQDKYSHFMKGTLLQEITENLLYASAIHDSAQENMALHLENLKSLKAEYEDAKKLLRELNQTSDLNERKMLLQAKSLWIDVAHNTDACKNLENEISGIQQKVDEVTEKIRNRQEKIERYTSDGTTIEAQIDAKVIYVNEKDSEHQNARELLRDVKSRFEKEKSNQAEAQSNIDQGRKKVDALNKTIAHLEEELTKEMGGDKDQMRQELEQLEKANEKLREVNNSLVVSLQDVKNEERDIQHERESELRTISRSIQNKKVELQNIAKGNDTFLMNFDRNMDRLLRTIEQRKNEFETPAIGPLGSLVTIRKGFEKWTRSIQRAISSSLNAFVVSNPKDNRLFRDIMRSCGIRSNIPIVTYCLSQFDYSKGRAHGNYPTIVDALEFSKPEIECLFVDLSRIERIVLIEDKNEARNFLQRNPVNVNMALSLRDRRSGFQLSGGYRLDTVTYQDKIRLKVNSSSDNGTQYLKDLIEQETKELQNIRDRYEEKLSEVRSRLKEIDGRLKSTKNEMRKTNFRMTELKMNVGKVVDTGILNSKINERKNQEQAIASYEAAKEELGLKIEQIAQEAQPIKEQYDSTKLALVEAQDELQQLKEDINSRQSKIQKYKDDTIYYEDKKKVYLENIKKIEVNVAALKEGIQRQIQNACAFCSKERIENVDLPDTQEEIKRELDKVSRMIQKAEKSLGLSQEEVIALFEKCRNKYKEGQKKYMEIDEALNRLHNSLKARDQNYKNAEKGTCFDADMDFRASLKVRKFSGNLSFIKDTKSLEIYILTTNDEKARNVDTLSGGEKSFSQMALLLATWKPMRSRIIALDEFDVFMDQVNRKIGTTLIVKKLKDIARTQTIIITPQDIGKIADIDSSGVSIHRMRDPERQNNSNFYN

Row | Binder | binding result [1] | binding result [2] | stoichiometry N (Mph1 monomer equivalents) [3] | stoichiometry N (Mph1 monomer equivalents) [4] | binding result [5] | binding result [6]
1 | B1 | binds | – | – | – | – | –
2 | B2 | – | binds | 1.4 | 7.3 and 12 and 17.4 | binds | binds
